Reference: the nanobody polyreactivity screen of Harvey et al. (2022)

Experiment: yeast display, Sf9 membrane polyspecificity reagent, FACS + sequencing; frameworks hold sequencing errors
Method in brief: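 Synthetic nanobody libraries on Saccharomyces cerevisiae BJ5465 were galactose-induced for 36–48 hours, stained 1 hour at 4 °C with 10% biotinylated, detergent-solubilized Sf9 membrane reagent and enriched on streptavidin microbeads. FACS then separated cells into low and high (top ~1%) gates by anti-HA (expression) and streptavidin (reagent binding) fluorescence. Genes were colony-PCR amplified, MiSeq 2 × 250 sequenced and CDR-length filtered. A clone's polyreactivity label is that of its gate of origin.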

| Sequence | polyreactivity (PSR sort gate) |
| --- | --- |
| QVQLVESGGGLVQAGGSLRLSCAASGSTFRWYAMGWYRQAPGKERELVASISGSGGSTYYADSVKGRFTISRDNAKNTVYLQMNSLKPEDTAVYYCNKRYFTYLGEHTVGYWGQGTQVTVSS | high polyreactivity |
| QVQLVESGGGLVQAGGSLRLSCAASGSTFRWYGMGWYRQAPGKERELVAVITRGGSTYYADSVKGRFTISRDNAKNTVYLQMNSLKPEDTAVYYCARVRGPNNAFYLGSTYGYWGQGTQVTVSS | high polyreactivity |
| QVQLVESGGGLVQAGGSLRLSCAASGSTFRYNAKGWYRQAPGKERELVAAINRGGGTDYADSVKGRFTISRDNAKNTVYLQMNSLKPEDTAVYYCAKQFVSYNRWLAYGYWGQATQVTVSS | low polyreactivity |
| QVQLVESGGGLVQAGGSLRLSCAASGSTFRYNAMGWYRPAPGKERELVAAITSGGGTNYADSVKGRFTISRDNAKNTVYLQMNSLKPEDTAVYYCAAPWGLGSELLKRDYWGQGTQVTVSS | low polyreactivity |
| QVQLVESGGGLVQAGGSLRLSCAASGSTFRYNAMGWYRQAPGKERELVAAISSGSSTNYADSVKGRFTISRDNEKNTVYFQMNSLKPVDTAVYYCAAQPGYYDDFYYWGQGTQVTVSA | low polyreactivity |
| QVQLVESGGGLVQAGGSLRLSCAASGSTFRYNAMGWYRQAPGKERELVAAITSGGGTNYADSVKGRFTISRDNAKNTVYLQMKSLKPEDTAVYYCAAPWGLGSELLKRDYWGQGTQVTVSS | low polyreactivity |
| QVQLVESGGGLVQAGGSLRLSCAASGSTFRYNAMGWYRQAPGKERELVAAITSTGDSTYYADSVKGRFTISRDNAKNTVYLQMNSLKPEDTAVYYCAARSYASPGWRYEYWGQGTQVTVSS | low polyreactivity |
| QVQLVESGGGLVQAGGSLRLSCAASGSTFRYNAMGWYRQAPGKERELVAGISYRGGTTYYADSVKGRFTISRDNAKNTVYLQMNSLKPEDTAVYYCAAGASSPGGWFYYWGQGTQVTVSS | high polyreactivity |
| QVQLVESGGGLVQAGGSLRLSCAASGSTFRYNAMGWYRQAPGKERELVAGITSSGGTYADSVKGRFTISRDNAKNTVSLQMNSLKPEDTAVYSCAAEYNWYDYWGQGTQVTVSS | low polyreactivity |
| QVQLVESGGGLVQAGGSLRLSCAASGSTFRYNAMGWYRQAPGKVRELVAAIDKRGDSTYADSVKGRFTISRDNAKNTVYLQMNSLKPEDTAVYYCAADSDSKYNYGFLWDTYEYWGQGTQVTVSS | low polyreactivity |
| QVQLVESGGGLVQAGGSLRLSCAASGSTFRYNAMGWYRQAPGKVRQLVAAIDKRGDSTYADSVKGRFTISRDNAKNTVYLQMNSLKPEDTAVYYCAADSDSKYNYGFLWDTYEYWGQGTQVTVSS | low polyreactivity |
| QVQLVESGGGLVQAGGSLRLSCAASGSTFRYNVMGWYRQAPGKERELVATISYSGGSTNYADSVKGRFTISRDNAKNTDYLQMNSLKPEDTAVYYCAARYLYPFYRYWWYDYWGQGTQVTVSS | high polyreactivity |
| QVQLVESGGGLVQAGGSLRLSCAASGSTFRYYALGWYRQAPGKERELVAAINRSGGSTYYADSVKGRFTISRDNAKNTVDLQMNSLKQEETAVYYCAAPWARHYSNPDDYWGQGTQVTVSS | high polyreactivity |
| QVQLVESGGGLVQAGGSLRLSCAASGSTFRYYALGWYRQAPGKERELVAAISTSGGRTYYADSVKGRFTISRDNAKNTVYLQMNSLKPEDTAVYYCNARESRGYAYQTWKYYYWGQGTQVTVSS | high polyreactivity |
| QVQLVESGGGLVQAGGSLRLSCAASGSTFRYYAMGWYRPAPGKERELVAAINSSGGSTYYADSVKGRFTISRDNAKNTVYLQMNSLKPEDTAVYYCATVYAYTGWLTNPREYSRYDYWGQGTQVTVSS | low polyreactivity |
| QVQLVESGGGLVQAGGSLRLSCAASGSTFRYYAMGWYRQAPGEEREFVASISSTGTSRYYADSVKGRFTISRDNAKNTVYLQMNSLKPEDTAVYYCAARYISYYGYNHWGQGTQVTVSS | high polyreactivity |
| QVQLVESGGGLVQAGGSLRLSCAASGSTFRYYAMGWYRQAPGKERELVAAISGSGGSTYYADSVKGRFTISRDNAKNTVYFQMNSLKPEDTAVYYCNKVYARLVLSYDSWGQGTQVTVSS | high polyreactivity |
